Results: the Human Domainome abundance scans (Beltran et al. 2025)

B1: Retinoic acid receptor RXR-alpha, residues 132 to 208; numbered along this chain, P19793 (parent)
chain: KHICAICGDRSSGKHYGVYSCEGCKGFFKRTVRKDLTYTCRDNKDCLIDKRQRNRCQYCRYQKCLAMGMKREAVQEE

Variants of: B1
Assay: abundance fitness (aPCA) (normalised: wild type 0, dead -1); higher = more abundant; growth selection in yeast, the domain comes from the species named
Conditions: Homo sapiens

Abundance fitness of substitutions, site by site:
R30: T -0.124 | C -0.41 | W -0.167 | F -0.362 | E -0.041 | I -0.352 | K 0.073 | G -0.087 | A -0.162 | L -0.178 | H -0.252 | M -0.141 | Q -0.129 | D -0.008 | V -0.353 | P -0.554 | S -0.158
Y19: G -0.207 | P 0.006 | D -0.041 | K -0.032 | T -0.073 | H -0.068 | S -0.067 | I -0.107 | R -0.097 | L -0.04 | C -0.116 | A -0.036 | E -0.047 | M -0.015
R33: E 0.044 | W -0.002 | C -0.287 | T -0.012 | I 0.004 | K 0.05 | N -0.017 | F -0.033 | V 0.018 | P -0.143 | D -0.005 | G -0.014 | M -0.003 | S -0.074 | L -0.096 | Y -0.158 | A 0.038
G13: K 0.084 | W -0.659 | Q -0.009 | P -0.118 | R -0.024 | I -0.367 | N 0.048 | V -0.067 | M -0.042 | S -0.121 | Y 0.017 | T -0.005 | L -0.082
E22: F -0.097 | H -0.104 | I -0.011 | A -0.048 | S -0.063 | P -0.037 | N -0.079 | Y -0.135 | C -0.043 | W -0.007 | G 0.031 | D -0.062 | R -0.002 | Q -0.094 | K 0.015 | V -0.053 | M -0.136
V18: D -0.205 | C -0.078 | A -0.133 | P -0.18 | N -0.574 | T -0.357
